In paper PMC3365938:

Molecular target: TolAIII, C-terminal domain of E. coli TolA (residues 302-421) with N-terminal His6 tag (E. coli) (UniProt P19934)
Experiment: SPR

Sequence of UniProt P19934 (P19934 302-421): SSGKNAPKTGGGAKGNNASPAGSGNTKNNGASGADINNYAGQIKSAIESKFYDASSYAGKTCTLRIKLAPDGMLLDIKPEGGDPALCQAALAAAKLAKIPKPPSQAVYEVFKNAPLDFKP

Kd: 1.34 µM
Substance: TA53-107, residues 53-107 of the translocation domain of colicin A (from UniProt P04480 53-107) (domain or fragment)
